Results published in patent US20240010722A1 (published 2024).
Residue numbers refer to the chain shown, from its start.

B1: MIAB133 (antibody, V domains shown)
VH: EVQLLESGGGLVQPGGSLRLSCAASGFTFSSFWMHWVRQAPGKGLEWISYISGDSGYTNYADSVKGRFTISRDNSKNTLYLQMNSLRAEDTAVYYCARDRPYYYYMDVWGKGTTVTVSS
VL: DIQMTQSPSSLSASVGDRVTITCRASQSVSRSLAWYQQKPGKAPKLLIYAASSLQSGVPSRFSGSGSGTDFTLTISSLQPEDFATYYCQQYKSYPVTFGQGTKVEIK
notes: tested with human Fc; also called MIAB133-001
B2: MIAB153 (antibody, V domains shown)
VH: B1 VH with S31D
VL: B1 VL with R31S, A34N
notes: tested with human Fc
B3: MIAB136 (antibody, V domains shown)
VH: B1 VH with F32Y, W33A, H35S
VL: B1 VL
notes: tested with human Fc
B4: MIAB170 (antibody, V domains shown)
VH: B1 VH with S31D, Y105W
VL: B1 VL
notes: tested with human Fc
B5: MIAB137 (antibody, V domains shown)
VH: B1 VH with S31D, I48V, Y50A, D54S, S55G, Y57S, N59Y
VL: B1 VL
notes: tested with human Fc
B6: MIAB146 (antibody, V domains shown)
VH: B1 VH with S31D
VL: B1 VL with R31S
notes: tested with human Fc; also called MIAB146-001
B7: MIAB151 (antibody, V domains shown)
VH: B1 VH with S31D
VL: B1 VL with V29I, A34N
notes: tested with human Fc
B8: MIAB145 (antibody, V domains shown)
VH: B1 VH with S31D
VL: B1 VL with V29I
notes: tested with human Fc; also called MIAB145-001
B9: MIAB148 (antibody, V domains shown)
VH: B1 VH with S31D
VL: B1 VL with A34N
notes: tested with human Fc
B10: MIAB149 (antibody, V domains shown)
VH: B1 VH with S31D
VL: B1 VL with V29I, R31S
notes: tested with human Fc; also called MIAB149-001
B11: MIAB147 (antibody, V domains shown)
VH: B1 VH with S31D
VL: B1 VL with S32Y
notes: tested with human Fc; also called MIAB147-001
B12: MIAB37 (antibody, V domains shown)
VH: EVQLLESGGGLVQPGGSLRLSCAASGFTFDDYAMHWVRQAPGKGLEWVASITSSSAFIDYADSVKGRFTISRDNSKNTLYLQMNSLRAEDTAVYYCAQERVDWNSYFDLWGQGTLVTVSS
VL: EIVMTQSPATLSVSPGERATLSCRASQGISNSYLAWYQQKPGQAPRLLIYGASTRATGIPARFSGSGSGTEFTLTISSLQSEDFAVYYCQQYYTYPPTFGQGTKVEIK
notes: tested with human Fc
B13: PMAB1 (bispecific antibody, human IgG1, kappa)
heavy: EVQLLESGGGLVQPGGSLRLSCAASGFTFSNSDMSWVRQAPGKGLEWVSGITISGGSTYYADSVKGRFTISRDNSKNTLYLQMNSLRAEDTAVYYCARGRGGSGWLDYWGQGTLVTVSSASTKGPSVFPLAPSSKSTSGGTAALGCLVKDYFPEPVTVSWNSGALTSGVHTFPAVLQSSGLYSLSSVVTVPSSSLGTQTYICNVNHKPSNTKVDKKVEPKSCDKTHTCPPCPAPEAAGAPSVFLFPPKPKDTLMISRTPEVTCVVVDVSHEDPEVKFNWYVDGVEVHNAKTKPREEQYNSTYRVVSVLTVLHQDWLNGKEYKCKVSNKALPAPIEKTISKAKGQPREPQVYTLPPSREEMTKNQVSLTCLVKGFYPSDIAVEWESNGQPENNYKTTPPVLDSDGSFFLYSKLTVDKSRWQQGNVFSCSVMHEALHNHYTQKSLSLSPGGGGGSGGGGSGGGGSEVQLLESGGGLVQPGGSLRLSCAASGFTFSDFWMHWVRQAPGKGLEWISYISGDSGYTNYADSVKGRFTISRDNSKNTLYLQMNSLRAEDTAVYYCARDRPYYYYMDVWGKGTTVTVSSGGGGSGGGGSGGGGSGGGGSDIQMTQSPSSLSASVGDRVTITCRASQSVSRSLAWYQQKPGKAPKLLIYAASSLQSGVPSRFSGSGSGTDFTLTISSLQPEDFATYYCQQYKSYPVTFGQGTKVEIK
light: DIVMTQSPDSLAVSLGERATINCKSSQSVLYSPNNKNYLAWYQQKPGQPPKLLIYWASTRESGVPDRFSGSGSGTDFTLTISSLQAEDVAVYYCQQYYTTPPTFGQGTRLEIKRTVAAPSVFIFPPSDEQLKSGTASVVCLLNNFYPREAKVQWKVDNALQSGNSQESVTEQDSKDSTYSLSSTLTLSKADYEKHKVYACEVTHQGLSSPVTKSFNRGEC
notes: also called parental PMAB1

How the values were obtained:
[1] = molecular target: T1, human MAdCAM (human, UniProt Q13477 19-317, limits assumed); test: BLI (Octet), binder on anti-human Fc tips
T1 construct: also called huMAdCAM; human MAdCAM-1
T1 sequence (looked up): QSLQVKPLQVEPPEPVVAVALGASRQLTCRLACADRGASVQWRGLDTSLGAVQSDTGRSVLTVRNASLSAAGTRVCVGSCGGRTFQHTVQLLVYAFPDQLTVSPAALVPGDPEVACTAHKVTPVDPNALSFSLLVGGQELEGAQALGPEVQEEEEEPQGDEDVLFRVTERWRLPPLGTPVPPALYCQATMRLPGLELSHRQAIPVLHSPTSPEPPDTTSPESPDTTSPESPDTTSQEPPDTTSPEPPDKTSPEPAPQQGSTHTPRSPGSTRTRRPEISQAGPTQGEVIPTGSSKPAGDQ

[2] = molecular target: Insulin; test: polyreactivity ELISA on insulin coat, 100 nM
Method: Non-specific DNA and Insulin binding is predictive of poor pharmacokinetics (PK). An immunosorbent plate was coated with dsDNA at a concentration of 1 μg/mL or Insulin at 5 μg/mL in PBS pH 7.4, 75 ul/well, and incubated overnight at 4° C. Wells were washed with PBS pH 7.4 containing 0.05% Tween-20 (wash buffer) three times, and then blocked with 200 ul/well 1% BSA in PBS pH 7.4 (block buffer) for two hours at room temperature. After three washes with wash buffer, TAs and controls Lenzilumab and Elotuzumab were diluted to 100 nM in PBS containing 1% BSA and 0.05% Tween-20 (assay buffer). The diluted material was added to the DNA/insulin coated plate at 75 ul/well for 1 hour at room temperature. After three washes with wash buffer, a donkey anti-human FcY HRP conjugated polyclonal antibody, diluted to 1:5000 in assay buffer, was added to the plate at 75 ul/well for 1 hr at room temperature. After three washes with wash buffer and three washes with wash buffer (with no tween-20), the assay was developed with TMB, and stopped with 1N HCL. OD 450 nm was measured. The experiment included appropriate controls for non-specific binding of test articles to the plate/block in the absence of DNA or insulin.

[3] = molecular target: T2, murine MAdCAM on cells (mouse, UniProt Q61826 22-405); test: flow cytometry on CHO cells
T2 construct: whole, on cells; also called CHO cells over-expressing murine MAdCAM; MAdCAM-1 expressing structures of mouse mesenteric lymph node
T2 sequence (looked up): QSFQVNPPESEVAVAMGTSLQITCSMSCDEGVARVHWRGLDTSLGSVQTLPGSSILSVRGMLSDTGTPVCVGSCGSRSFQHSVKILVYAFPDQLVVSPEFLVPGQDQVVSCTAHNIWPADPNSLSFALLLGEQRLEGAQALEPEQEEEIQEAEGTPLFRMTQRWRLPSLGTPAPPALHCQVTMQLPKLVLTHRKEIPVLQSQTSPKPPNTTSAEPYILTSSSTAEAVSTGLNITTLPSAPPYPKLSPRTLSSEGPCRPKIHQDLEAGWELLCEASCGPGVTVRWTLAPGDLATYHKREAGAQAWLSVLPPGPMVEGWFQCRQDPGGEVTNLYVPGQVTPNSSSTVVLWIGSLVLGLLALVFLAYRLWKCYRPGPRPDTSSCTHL
Method: (§1) Parental CHO cells or CHO cells over-expressing human MAdCAM or murine MAdCAM were seeded onto wells of a 96 well plate (Corning) overnight. After washing 3 times with F12+10% FBS media, the plate was blocked for 1 hour with 5 uM whole human IgG. 10 nM parental MAdCAM-IL-2 M bi-specifics PRNT1 and PRNT2, or optimized variants MIAB12, MIAB13, MIAB25, MIAB26, MIAB37, MIAB204 and MIAB197 were captured for 1 hour. After washing 2 times with F12+10% FBS media, freshly-isolated human PBMCs were stimulated for 60 minutes with captured IL-2 MM bispecifics. Cells were then fixed for 10 minutes with BD Cytofix, permeabilized sequentially with BD Perm III, and BioLegend FOXP3 permeabilization buffer, blocked with human serum and stained for 30 minutes with antibodies against phospho-STAT5 A488, CD25 PE, FOXP3 AF647 and CD4 PerCP Cy5.5, CD3 BV421, CD56 BV785 and acquired on an Attune NXT with plate loader. […] Accordingly, PRNT1, PRNT2, MIAB1, MIAB12, MIAB13, MIAB25, MIAB26, MIAB37 MIAB204, and MIAB197 selectively activate Tregs.

[4] = molecular target: T3, human MAdCAM on CHO cells (human, UniProt Q13477 19-382); test: flow cytometry on CHO cells
T3 construct: whole, on cells; also called CHO cells over-expressing human MAdCAM
T3 sequence (looked up): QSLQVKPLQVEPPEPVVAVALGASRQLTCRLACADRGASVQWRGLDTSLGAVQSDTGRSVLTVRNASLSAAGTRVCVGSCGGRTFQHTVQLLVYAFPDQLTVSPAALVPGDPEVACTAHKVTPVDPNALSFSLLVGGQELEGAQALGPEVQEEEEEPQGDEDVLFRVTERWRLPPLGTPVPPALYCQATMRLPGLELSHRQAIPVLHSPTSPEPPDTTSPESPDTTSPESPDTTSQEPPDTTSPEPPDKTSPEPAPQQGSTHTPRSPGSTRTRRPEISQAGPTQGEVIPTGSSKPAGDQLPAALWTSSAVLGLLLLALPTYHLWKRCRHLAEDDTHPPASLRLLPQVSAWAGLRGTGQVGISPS
Method: as §1

[5] = molecular target: T2, murine MAdCAM on cells; test: confocal staining of mouse mesenteric lymph node sections, 1 and 10 nM
Method: Fresh frozen mesenteric lymph node replicates from a 12-week BALB/c mouse were sectioned at 5 um, fixed with acetone, blocked with blockaid buffer solution for ten minutes room temperature and incubated with 1 and 10 nM titrations of test articles overnight at 4-degree Celsius. Tissues were then stained with anti-mouse MAdCAM and anti-human IgG Fc for two hours room temperature, DAPI counterstained and mounted and imaged with confocal microscopy. Clones including optimized MAdCAM (PMAB58 and PMAB18) co-localized with MAdCAM-1 expressing structures similarly to the parental clones (PMAB1 and PMAB57).

Chain of Insulin (P01308 25-54, chain 1 of 2): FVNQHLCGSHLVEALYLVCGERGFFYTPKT
Chain of Insulin (P01308 90-110, chain 2 of 2): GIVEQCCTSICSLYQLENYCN

Binder	Kd [1] [nM]	koff [1] [s⁻¹]	Insulin polyreactivity score [2]	kon [1] [M⁻¹ s⁻¹]	binding result [1]	binding result [3]	binding result [4]	binding result [5]
B1	20	0.0113	13.2	–	–	–	–	–
B2	8360	0.543	2.46	64800	–	–	–	–
B3	–	–	75.4	–	no binding (tested: 150 nM)	–	–	–
B4	–	–	4.73	–	no binding (tested: 1 µM)	–	–	–
B5	203	0.082	67.3	404000	–	–	–	–
B6	43.8	0.0197	2.61	449000	–	–	–	–
B7	2960	0.292	3.63	98700	–	–	–	–
B8	22.2	0.00897	4.58	405000	–	–	–	–
B9	2690	0.314	3.63	117000	–	–	–	–
B10	68.8	0.0259	3.53	376000	–	–	–	–
B11	–	–	3.81	–	no binding (tested: 200 nM)	–	–	–
B12	–	–	–	–	–	binds	binds	–
B13	–	–	–	–	–	–	–	binds
